Assay results published in paper PMC7036143 (Molecular cell, 2020).
Values joined by “and” are separate entries in the source; they are usually repeats but may differ in a detail not shown here. Equal entries are not always repeated. Where two headings read alike, the source gives them in different places.

B1: E. coli MS115-1 Trip13 E159Q (purified) (enzyme)
chain: MNVKPSLDELFERRINFPDFEPQERLARLVGLDEHKDRLSKILGLLVNPYGIQEWAKKYHPDARAAVDTVLRRPPLVVLAGDVGSGKTELAETIGDAVARQEDIDITLYPLSLATRGQGRVGEMTQLVSAAFDYTIEAADKLKNTNGKARGAVLLLIDQADALAQSRENAQMHHEDRAGVNAFIRGIDRIANQKLPAAVLMCTNRLKALDPAVQRRAAEILTFSRPNDEQRHYLLHSKLTGLGLNSTAVEELVRLTGPRDPNSPGFTFSDITQRLIPSIILAAYPYNAVSVHSALQVVNKMTPTPAFIDRQ
B4: P. aeruginosa ATCC27853 HORMA2 (purified in complexes) (natural protein)
chain: MSTVATYSYTHSVTYVTDNILKSLKDIILLSGLDPEHFADRWESNTRAIKTWLGTGDLRKVILEIYNPATDKLVTRWDIDIVYGWSDGDGSFWTDTEQLKYAIKKAGLLPSQAKYKLMLDTKPGRPDVEGWSKGSYRSTDGMVKQSLGSTVEHSGLAGQAGYWRQR

What was measured:
[1] = molecular target: T1, Ec CdnC:HORMA-ΔN (crystal) (Escherichia coli, UniProt D7Y2H2); test: crystal structure; format: binding; conditions: active site; copies contain either no ligand or AMP; co-purified
T1 sequence (D7Y2H2 1-321): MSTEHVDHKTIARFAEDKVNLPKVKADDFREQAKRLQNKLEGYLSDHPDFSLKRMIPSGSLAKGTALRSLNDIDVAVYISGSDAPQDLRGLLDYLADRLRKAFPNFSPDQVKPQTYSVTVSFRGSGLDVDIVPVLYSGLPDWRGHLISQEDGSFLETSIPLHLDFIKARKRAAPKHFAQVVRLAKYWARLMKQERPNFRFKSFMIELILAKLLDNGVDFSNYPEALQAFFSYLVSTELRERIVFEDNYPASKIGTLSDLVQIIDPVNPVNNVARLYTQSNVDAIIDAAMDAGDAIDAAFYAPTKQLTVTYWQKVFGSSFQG
T1 sequence (D7Y2H3 12-172 partner): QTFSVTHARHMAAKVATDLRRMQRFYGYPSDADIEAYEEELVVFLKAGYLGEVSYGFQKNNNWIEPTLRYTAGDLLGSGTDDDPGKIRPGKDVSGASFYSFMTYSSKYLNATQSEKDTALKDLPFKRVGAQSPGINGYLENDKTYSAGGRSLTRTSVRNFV

[2] = molecular target: Rhizobiales sp. Trip13 (Rhizobiales sp.); test: crystal structure
Ec CdnC:HORMA:Trip13^EQ = molecular target: T2, Ec CdnC:HORMA:Trip13^EQ (Escherichia coli, UniProt D7Y2H4, E159Q); test: crystal structure, […] Å; format: binding; conditions: four of six Trip13 subunits (A-D); 1 mM ATP, 5 mM MgCl2
T2 sequence (D7Y2H4 1-311 E159Q): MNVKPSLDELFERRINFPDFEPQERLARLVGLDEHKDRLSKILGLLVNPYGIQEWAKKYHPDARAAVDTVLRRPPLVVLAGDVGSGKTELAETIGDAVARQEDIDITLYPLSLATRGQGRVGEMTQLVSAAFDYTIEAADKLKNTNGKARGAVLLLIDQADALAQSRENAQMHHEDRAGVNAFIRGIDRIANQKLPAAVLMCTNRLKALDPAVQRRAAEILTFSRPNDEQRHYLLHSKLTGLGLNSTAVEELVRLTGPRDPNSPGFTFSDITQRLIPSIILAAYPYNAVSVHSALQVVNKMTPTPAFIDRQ
T2 sequence (D7Y2H2 1-321 partner): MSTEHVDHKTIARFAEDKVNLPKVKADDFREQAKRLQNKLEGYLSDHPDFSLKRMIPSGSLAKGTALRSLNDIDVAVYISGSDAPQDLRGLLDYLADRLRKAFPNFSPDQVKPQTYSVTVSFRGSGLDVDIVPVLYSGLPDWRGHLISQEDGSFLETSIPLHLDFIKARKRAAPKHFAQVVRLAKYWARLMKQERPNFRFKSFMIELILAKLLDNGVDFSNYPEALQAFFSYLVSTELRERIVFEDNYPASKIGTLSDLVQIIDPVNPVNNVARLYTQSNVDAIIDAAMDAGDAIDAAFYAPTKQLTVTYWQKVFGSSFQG
T2 sequence (D7Y2H3 1-172 partner): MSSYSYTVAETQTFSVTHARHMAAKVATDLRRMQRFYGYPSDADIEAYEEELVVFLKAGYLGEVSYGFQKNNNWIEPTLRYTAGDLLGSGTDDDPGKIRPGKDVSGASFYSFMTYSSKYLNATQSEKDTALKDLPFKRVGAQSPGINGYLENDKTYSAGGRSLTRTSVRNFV

Ec CdnC = molecular target: T3, Ec CdnC (Escherichia coli, UniProt D7Y2H2); test: crystal structure, […] Å; format: binding; conditions: Mg2+; active site; ATP co-purified from E. coli
T3 sequence (D7Y2H2 1-321): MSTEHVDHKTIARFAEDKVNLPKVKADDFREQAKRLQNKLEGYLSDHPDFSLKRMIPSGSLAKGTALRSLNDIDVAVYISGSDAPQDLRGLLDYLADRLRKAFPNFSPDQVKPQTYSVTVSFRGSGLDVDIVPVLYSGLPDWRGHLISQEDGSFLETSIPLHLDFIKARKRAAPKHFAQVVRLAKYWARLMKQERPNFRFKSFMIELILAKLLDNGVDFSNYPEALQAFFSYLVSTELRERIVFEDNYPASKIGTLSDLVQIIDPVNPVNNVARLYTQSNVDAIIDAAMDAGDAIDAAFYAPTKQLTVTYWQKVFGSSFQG

[3] = molecular target: E. coli MS115-1 CdnC (purified, in complexes with HORMA) (E. coli MS115-1) (UniProt D7Y2H2); test: crystal structure
[4] = molecular target: E. coli MS115-1 CdnC (purified, in complexes with HORMA) (E. coli MS115-1) (UniProt D7Y2H2); test: SEC
[5] = molecular target: E. coli MS115-1 CdnC (purified, in complexes with HORMA) (E. coli MS115-1) (UniProt D7Y2H2); test: SEC; remark: listed apart in the source
[6] = molecular target: T4, Ec HORMA:CdnC complex (co-expressed, purified, 1:1) (E. coli MS115-1, UniProt D7Y2H2 1-321; D7Y2H3 1-172); test: SEC-MALS
T4 sequence (looked up) 1: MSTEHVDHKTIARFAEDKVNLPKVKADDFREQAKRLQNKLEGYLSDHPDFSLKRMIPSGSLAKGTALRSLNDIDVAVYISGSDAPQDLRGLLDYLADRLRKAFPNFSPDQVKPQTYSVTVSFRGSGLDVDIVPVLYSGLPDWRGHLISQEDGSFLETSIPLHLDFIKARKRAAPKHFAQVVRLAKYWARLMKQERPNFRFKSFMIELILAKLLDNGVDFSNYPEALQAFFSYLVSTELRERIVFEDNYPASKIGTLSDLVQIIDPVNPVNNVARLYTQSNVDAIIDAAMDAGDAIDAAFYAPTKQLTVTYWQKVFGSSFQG
T4 sequence (looked up) 2: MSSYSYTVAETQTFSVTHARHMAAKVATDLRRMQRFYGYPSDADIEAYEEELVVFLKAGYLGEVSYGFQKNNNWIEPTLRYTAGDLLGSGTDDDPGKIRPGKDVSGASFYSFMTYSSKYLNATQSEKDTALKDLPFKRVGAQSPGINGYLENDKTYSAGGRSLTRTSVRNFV

crystal structure [7] = molecular target: the molecule itself; test: crystal structure
Pa CdnD = molecular target: T5, Pa CdnD (Pseudomonas aeruginosa ATCC27853, UniProt P0DTF7 1-300); test: filter binding
T5 sequence: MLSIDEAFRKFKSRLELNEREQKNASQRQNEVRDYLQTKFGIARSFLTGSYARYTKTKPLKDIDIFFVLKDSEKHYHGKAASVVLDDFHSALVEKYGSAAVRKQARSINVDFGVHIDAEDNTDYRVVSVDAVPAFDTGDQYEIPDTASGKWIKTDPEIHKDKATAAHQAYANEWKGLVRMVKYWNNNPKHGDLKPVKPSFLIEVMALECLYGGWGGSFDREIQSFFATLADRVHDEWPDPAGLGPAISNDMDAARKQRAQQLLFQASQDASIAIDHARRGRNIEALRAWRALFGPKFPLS

crystal structure [8] = molecular target: the molecule itself; test: crystal structure; remark: listed apart in the source
[9] = molecular target: T6, P. aeruginosa ATCC27853 CdnD (purified) (P. aeruginosa ATCC27853, UniProt P0DTF7 1-300); test: SEC-MALS
T6 sequence: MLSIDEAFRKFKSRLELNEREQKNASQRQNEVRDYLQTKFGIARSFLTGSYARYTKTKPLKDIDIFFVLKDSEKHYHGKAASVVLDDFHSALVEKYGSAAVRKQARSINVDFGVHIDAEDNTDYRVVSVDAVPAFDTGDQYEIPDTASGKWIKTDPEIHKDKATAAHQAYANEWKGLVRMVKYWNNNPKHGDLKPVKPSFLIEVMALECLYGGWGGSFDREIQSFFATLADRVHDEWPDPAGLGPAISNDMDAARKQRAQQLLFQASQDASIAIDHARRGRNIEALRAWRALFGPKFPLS

[10] = molecular target: B4; test: SEC-MALS
[11] = molecular target: B4; test: crystal structure
[12] = molecular target: B1; test: crystal structure
[13] = molecular target: T7, E. coli MS115-1 CdnC (purified, in complexes with HORMA) (E. coli MS115-1, UniProt D7Y2H2 1-321); test: SEC-MALS
T7 sequence (looked up): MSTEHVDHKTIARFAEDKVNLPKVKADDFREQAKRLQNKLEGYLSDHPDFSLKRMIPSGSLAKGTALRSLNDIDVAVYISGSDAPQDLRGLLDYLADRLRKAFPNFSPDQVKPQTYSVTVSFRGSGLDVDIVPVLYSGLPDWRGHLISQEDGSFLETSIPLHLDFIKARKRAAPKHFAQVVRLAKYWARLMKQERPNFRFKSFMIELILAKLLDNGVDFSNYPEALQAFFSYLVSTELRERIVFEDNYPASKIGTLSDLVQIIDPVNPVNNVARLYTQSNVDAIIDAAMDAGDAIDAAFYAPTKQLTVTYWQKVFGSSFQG

Molecule: Nc1ncnc2c1ncn2[C@@H]1O[C@H](COP(=O)(O)O)[C@@H](O)[C@H]1O [AMP]
- crystal structure [1]: contain either no ligand or AMP in the active site

Molecule: Rhizobiales sp. Trip13 (enzyme)
- stoichiometry N [2]: 6

Molecule: Nc1ncnc2c1ncn2[C@@H]1O[C@H](COP(=O)(O)OP(=O)(O)OP(=O)(O)O)[C@@H](O)[C@H]1O [ATP]
- crystal structure, 2.64 Å (Ec CdnC:HORMA:Trip13^EQ): with four subunits (monomers A-D) bound to ATP
- crystal structure, 1.44 Å (Ec CdnC): the active site is occupied by one molecule of ATP that was co-purified

Molecule: Ec HORMA-ΔN with N-terminal His6-tag (from UniProt D7Y2H3 12-172) (domain or fragment)
- stoichiometry N (HORMA-ΔN per CdnC (2:2 complex)) [3]: 1

Molecule: Ec HORMA-ΔN with the His6-tag removed (from UniProt D7Y2H3 12-172) (domain or fragment)
- stoichiometry N (HORMA-ΔN per CdnC) [4]: 1
- stoichiometry N (HORMA-ΔN per CdnC) [5]: 1

Molecule: B1
- stoichiometry N [6]: 6 Trip13^EQ per 1 CdnC:1 HORMA
- stoichiometry N (crystal structure [7]): 6

B2: 40 bp dsDNA (5'-FAM Oligo #1/Oligo #2) (dsDNA)
DNA 1: CCTTTCGAAGACTCATCACGGAGAGCAGACATCATCTGGC
DNA 2: GCCAGATGATGTCTGCTCTCCGTGATGAGTCTTCGAAAGG
- binding result (Pa CdnD): no binding

B3: P. aeruginosa ATCC27853 HORMA2 (purified alone, crystallised) (natural protein, UniProt P0DTF6 1-166, looked up)
chain: MSTVATYSYTHSVTYVTDNILKSLKDIILLSGLDPEHFADRWESNTRAIKTWLGTGDLRKVILEIYNPATDKLVTRWDIDIVYGWSDGDGSFWTDTEQLKYAIKKAGLLPSQAKYKLMLDTKPGRPDVEGWSKGSYRSTDGMVKQSLGSTVEHSGLAGQAGYWRQR
- binding result (crystal structure [8]): binds

Molecule: B4
- stoichiometry N [9]: 1 HORMA2 per CdnD

B5: P. aeruginosa ATCC27853 HORMA3 (purified, in vitro reconstitution) (natural protein)
chain: MTTVVSRTFRSSPHRDALQTWDAIVELLTQGKDGTARSELRAVTGVAASLIADQAPKSAPIVATCDGPRTRIYCLFDEDAIDGDDANEEVLGFEPLKGDWGVSLPCPKEQLGWVQSALKKHSSRIIARDLSQGIATQAQADAGQALSLDLGGFLKS
- stoichiometry N [10]: 1 HORMA3 per HORMA2
- stoichiometry N [9]: 1 HORMA3 per CdnD

Molecule: EVMEFNP [Peptide 1 (EVMEFNP), tag cleaved]
- binding result [11]: binds

B6: E. coli MS115-1 HORMA with N-terminal His6-tag (purified) (natural protein, UniProt D7Y2H3 1-172, looked up)
chain: MSSYSYTVAETQTFSVTHARHMAAKVATDLRRMQRFYGYPSDADIEAYEEELVVFLKAGYLGEVSYGFQKNNNWIEPTLRYTAGDLLGSGTDDDPGKIRPGKDVSGASFYSFMTYSSKYLNATQSEKDTALKDLPFKRVGAQSPGINGYLENDKTYSAGGRSLTRTSVRNFV
- binding result [12]: binds
- stoichiometry N [13]: 1 HORMA per CdnC (1:1 complex) and 1 HORMA per CdnC (2:2 complex)
